The domain aggregation screens of Martell et al. (2025)

Test: soluble fraction after stress (log2 fold change); higher = more stays soluble; pooled small domains, quantitative proteomics
Conditions: stress: pH 4
Method in brief: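 With high-throughput quantitative proteomics, pooled custom libraries of small protein domains were measured after pH 4 stress. Each domain's soluble amount after the stress gives a fold change taken as aggregation propensity. Higher log2 values mean more of the domain stayed soluble.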

Sequence | soluble fraction (log2)
HMSATEPVHFDPNKSPEDMTVEELQAGILAKMANNGPVSDQMKKTVNENIWHDSLVNWLKSF | -0.0828
HMEKKGTVVIATVKGDIHDIGKNIVKVLLENYGFDVIDLGKDVPPEAVVEAVQQSGARLVGLSALM | -0.577
HMADLNQTDIDSITKSVGGVEQYKSLMDWAGKTLSQDAIDSFDDLVNTGNKGSIQLAVNGLVAQYQNDN | 0.121
HMAADLIGLEARVTLPLTEDQRGFIETSVRGSLVRRAALSASGRLDRGQRVVILRSEGTTLIVDAL | -0.372
HMVGEYTVKKGDTLWKIAGQTLGSPLRYAEIYELNKDVIEEAALGRGKKNSSNGHWIFQGTVLKIPA | -0.255
HMGASGVEVPDVAGMSTAQAVSSLEQKGFVVNRTESYDAGVEKGNVISQSPEGGTKAPNGSAVTIRISQGA | 0.081
HMRSQLALVVRTGESQRLDNFLVNNLAWKSRNRLQGLIREGLVTVNGEKTKASRRVHLDDLVEIHL | -0.0501
HMESADEESNALMYDGLLAMRGKRYEVALEFFDALVKHDPDFAEGWNKRATVLYLLGRYERSIADIKQVLA | -0.0176
HMEFGEVLAQLRQKRHISQAELGRAIFVSGGTISNYEKGVHFPDVEKLLLLADYFNVTTDYLLGRT | -0.169
HMTATKDLPFSTFITEVEKGNITSVDIKGNQIEGTFSNGAKFKTYSPNYPNLVERLADKGVAISAGPS | 0.141
HMPKAKASARNDTRTRLLTIGTEVLSQKGFASTGVEEILSVAGVPKGAFYYYFESKAAFGLAVIENYE | 0.22
HMIMTTKVSGIMFDKFNPSAILNINGMDYLVRSGDIINGYKILSIGQETVTVQYGANVYKASVG | -0.603
HMNTIFSVNGPVVKVKDTKDFSMMEMVYVGEKKLIGEVIGITESFTTIQVYEVTTGLKVGEPVYTTGAPM | 0.166
HMVLVGERRQKILEVVSSGKAVTVEELSRILHVSPSTVRRDLRFLESRGLLYRTHGGAMPPV | -0.0726
HMQTKMVYSDLVNSIKSEQVSSMLVSGNTVTVTLTNGDKAKVKIPSLDTLQADVGKEMNDQMDKGTLKQE | -0.123
HMGWTTPAGIAVGMDKSVLQDAYGKEDDTFQDKGILYYQYFVHPSRMSGLSFGIKNDKIVSITAYMD | -1.23
HMLSEKELLELLNRAKSNYNGITKKGIEAIALKYQGYSNVEIANLYHVKANHISAWISRARSRLKADY | -0.0621
HMDGDVAVKGGDGVLEVRLANAANVRVYNLAGRLMADYTGTELHMPLPKGVYMVVAGDNRTKVVV | -0.00794
HMSQPLYWQIRRMVIDHDDANDVLQNTFIKAWSNIGSFRGDAKFSTWLYKIAVNESITFINKKKVQN | -0.0472
HMIGKLTSSKLAAIHKMKTNELLAHFTEKGFLNINDAGKYILTQQGKDVGAEFKTSQYGGYFLWPENIE | 0.0031
HMSTQGRRIEILRHLTQTKKKADVNFVELGRTFGTSDTTIRKDLDWLIKNEYWENHGEWKPTQAGLNMI | -0.00179
HMNVAVPTPADKRKVRVMKADINAKLRVNDANGAYAVYEELKEWVTLKGFTEWNDDLSKLSETMGSMKRKV | -0.0387
HMISQLRGKVLGTDRDALVIDVGGVGFRVSATAGARALAGQSGNEARLFTEMVVREDSIDLFGF | -0.245
HMTTIAQMTGPQRAAVILLVLGEDHGRTIWQEFDDDEIRIITRAMAELGTVDADEVERLMLDFVGKLSS | -1.75
HMAPDDTAVWSAFIGWFRTAPDGPNPLGAYAAKLGEEGLDAAEVGRRMTVIVRLFAEKPEGAEVFYDRTYA | -0.456

Sequence | soluble fraction (log2)
HMLIIDLPDFTNKKLSELQQWADANQITLKIVEKDVSSKPYDTILEQTPAKNKYEKIVKGSTMTVTVNIK | -0.272
HMLARPTANELVKEMQRRAKEQRTELPPDAARDLLERSGQDQFLLGNEVDKLAALSGYTTITREMVAQAGT | 0.0328
HMSLMHEESLKNIRRFINSLPESLRTAFTLREQDGLSYEEIGVITETPIGTVRSRIFRAREAILEHIKKEL | -0.445
HMEWGEADFVRLDEALATLRTLSPRQAEVVDLRFFSELSLEETAATLGLSLATVKRDWSVARLYLQRALS | -0.815
HMKSILDDVVGLGPVRKKALLSAAGGFRKLRDMDVDEVIGLGAVPEEVAREVVTVLAQYNGERDRVEGL | 0.104
HMNNLVTRREVEILGWIKEGKTTSDIAGILSLSPFTVKNHVQNILKKLGARSRSHAVAQAINLGLLH | -0.446
HMFPELTDDEQLIVSTLAKTNDMQINMLAVRTGIPVQRMSALLFSLEMKGVVKMYAGGTYHLL | -0.0499
HMINSFDYLQAIFTELMKSQSKMTNQDAAKRLFMQGKVAVSNRDREGLRMVLAQLVTLLPKEELGGLSTVS | ≥ 0.43
HMRSMEKRLTAKVKRVQEGVQAKSQAGEQPFEVVKLMQRFPKLMQFGKHAEAETVLDKALELLGEE | -0.373
HMHLTRYQYKVETEQEAVGLKELSSVHDLQIKENEATFQADSDAIDEILKTLLLYGVKKLEATPPTLED | -1.05
HMTSNIIIVPNVVGMTKEQATAALAAAGLNIKLSGVETTDTAAVAVKQKPSANTKVEEGSVVTVEFDLK | -1.35
HMGGFNATTLQNIEELRRSLSDADQFGRHEVIETIGGSDSRAGKLLKKMLEAGIIEQVKGHGKGRYRFKRT | 0.0979
HMGKVLIYKPNMSVSDVAIRLGISNAEIIKRLMGLGVMTSINQTIDRDTIELVAMDLGFSIEN | -0.581
HMNANTILNSQRILTQLGFNPGPIDGAFGAKTKGALNAFYTSIGKSYDGLLDSNELVELQKALDVSGLKN | -0.198
HMRPYAYGTGRRKSSTARVHLIPNGSGSITINGRTLDEYFGLETLKLIVRQPLAATETAEKFDVEATVV | -0.509
HMADDFISTLFSEGIIIDTEVKQFAERQGSPLQFVRHIASNLPEPRDIITMGEVRSVMREGA | -1.04
HMGSIGAMLSSPELYGKLATNPATRGFLSQPDFIAMLTDVQKNPDKFGSYMSDPRMMQVLSVALG | -0.103
HMKAPPLTDREKEILRWVAAGLQNKEIAHKLGISLATVRNHIHNILEKLDVHSKLEAVSLAFRQGWVS | -0.133
HMAIGDYYINASALNVRSGEGTNYRIIGALPQGQKVQVISENSGWSKINYNGQTGYIGTRYLSKTPV | 0.22
HMIRMPNLIGLSVRSAEQQLVIAGLKKGIVHQVNDPRLKEVIDMQALGHKITAGSSIPKGTEVDLYIGNGT | 0.282
HMEFEIGQEDSKKSVKQFLYNTLRLSHGQVTALKRQERGILLNGERVFVTALLQEGDRLSLLLE | -1.24
HMHSGFHSAILDVDRAVKEGKTLYEALNKYPYIFDETFRSLVRAGEASGELPSILSKLALYLEEQSK | -1.04
HMGLIDNLTRIMEKKNISAYQLEKAGIVKQTTFTSWKKGTQPALDKIIKIMQYIEVTPNELFGY | -0.456
HMKIVPEPGTVLIREYQEERHEVTVTLDGAFDYKGTLYSSLSEIARLITGTRWSGPVFFGLRS | -0.353
HMSLMLYVEDVDTAFKKAIELGATEIRPVHDQFYGDRAGTLQDPFGHIWIIGTHKEDVSDEELNNRIGNI | -0.332

Sequence | soluble fraction (log2)
HMAQLPPTATARATSDVSGLTASAALRTLLEQGFVPQIHGSGKVSRQHPPAGTLLEPGSTIQLFLEPS | ≥ 0.43
HMDMPLIGTAIRGWGIISPAQQETLIKMSILTVEDLAAINDEGIKRIGMGGLDLKNKAKAWLLQLK | -0.00985
HMAPRKNIRLLRAAQDKAAAEGDHETVDAIRGQIAALIETLPVQYREEYLLQEKGRENGLKLAIENAAK | -0.214
HMLPKLAEEYAIMEIRGKGENLTAKLINKGGDSFMVRNGTVLQTGHRIDEITQTYVRAEINGMKDYLYFA | -1.44
HMNPIEAQIEELKNKDQKTAYQALKHLLAISETRAEVSYYFDRFVALLQDPQSYVRTRGLLLIGA | 0.0533
HMNGAAAEQARKQLMTALKASEFIAQDKLDEWLDALALPQEKRSAIIDAVDELDYEEAISELEN | -0.2
HMEKINLIIEEDNNLRLDKVIAMQLQELSRTQIQDMINQGLVLVNQKKEKASYKTKLNDEIEITILD | -0.382
HMSNKYYETILDWFKSQIMSGELKEGDTIPSERELATRFGVSRVPVREALRILEYIGIVSNTADGMTVQKV | -0.976
HMIEDMQQYIKEIRQMVSGRLDMTRNLEDEEIRDTIAELVAEESRKQYMTLTEKREVIEGVFNSMR | -0.687
HMEDYYKILGVSKDASIDDIKKSYRKLSLQNHPDRNKSPQASENFAKINSAYEVLSDQRKKRQYDMQQSM | ≥ 0.43
HMYEENFSKIKNDISTIFKRHKISFTNNFISHLSSVFNTDSLTNKMELEKLDSFLINNKKVTENELLKFII | 0.0436
HMDDKVGKVFNYVQEKILTGEWDIGDKITPEISLSKELGVSRSVVREAIKKFVALNILSRTQGGGTYVNNL | -0.621
HMGDLVFDFVHGVHKAAEVEKELVMQALRFTHGNVSRAARLIGMQRSSLRYRIERYRLDAFVMEVAN | -0.0309
HMKTTKESLLEYIQREVFTDSIHKEGLSTNEIADAFQIQRSNVSSLLNTLVKEGKLEKTTGRPVLYRIPEK | 0.0777
HMKIDLPIWLNKKAWEAWVEYKKERKQKLTPSIIKFQLRILEKNKEDHPEIIRNSITNGWTGLFPLK | -0.347
HMKTMTTIRKGSRGDTVATLQRKLNLIADGIFGPITDEAVRDFQKSHGLAVDGIVGPKTWAALGVGS | 0.354
HMYTEIDDVKDLLSKIPSVNKLTTADRGMVQAARNAYDALDEDQKLYITIADVEKFNAAVEWMEEH | -0.523
HMTHEAEDLNALRMMVRDPIFSSDEPDLQQLRGAVAHAPQFVDRFKELYNDYQRLAEFVQNSL | -1
HMLPVLEIGTMIRIIRQPHFGTIARVVALPEELTKVESETLVRILDAEFDDGTRVRIPRANVEVIE | -1.37
HMAPPPPEGYIHRWIRESVMGFDDKKNLSARIREGFELVRAEEYPDYEAPTVMDGKHAGVIANGGLLLARF | -0.236
HMQLDDDQKEELILKLIDSLDTTKKGAPLTELAREAAKSNIGESELEEITTSLLDKGLVYEPTIGKMKR | 0.0111
HMAPVVAILTRQLPLPQAQQLAGQTALVRVVKGGPGNEAELEFAGQNIQVKLPPGRQLTAGEMVTVAFALS | -0.0882
HMAYMETIERVEALAPGTKFNLKALFGTDWTQSRGTKLTLGKTFYEMVESGYVKTAKVLGKDSSNIMQYER | -0.0837
HMTTQERVSYSAFINDVETGRVAKVVISGYTIEGTRTNNSSFVTERPYGVDSNLSEVLMQNSVSIEGKA | -0.523
HMRKKTYEIITDDLRRMIEAGLIRPGEKLGAIDQLAAKYRVGRSTVREALSHLKALGLVESRQGGGTYVTK | 0.109
